Test: soluble on expression in E. coli; label from the status in PepcDB or PDB records

Sequence	soluble on expression in E. coli
SLEHFDDKSQLKRNGFYFSYNVDKENIEHWISAILFQVLKDKEDIVILSLGVDTLVGDSLGPLVGSILKRNGIPNVYGTLDRTVNASNIIKILDEIHERFKNPYILVVDAAVTAENNINDIVLRNGGFTPGFGVYRQLPTVGDFSLVGVVNKEDEREHNLIELLKKCRFDEVLKLARIISKILVLTFARMNKGDK	soluble
MGSDKIHHHHHHEETRTEVEKKNYMNNAEEAKDVLLGVYRTNTLDAMYGYYLSILFNLGTDISQVEGSGNENFRIIPTNSFPTTQSEVQQTWAALYTGIYRANDFLERISNKIGSYTTTDKKLATLYIAEARALRGMFYFELVRRFGNVVLMTSTQMSNQNPATYVQSAPEKVYEYIEDDLLYACDILPYATDDQYRESNDYRFSKGAALGLLTKVYATWAGYPVKDESKWEAAAKTARILVESGKHGLLKDYEQLWKNTCNGTWDPTESLIEISFYSPTVSGNSDPVGRIGKWNGVKTTAIAGVRGSCAANVKVVHTFVLDWREDVSDIRRDLSIANYQYTDTKKSLWVAGASDTDESAAEKDADPTKAQKNKQNYTPAKWDIQKYVTTNSFINNDKSNVNWYFLRYADVLLLYAEALNEWKHGPDAEAYNAINAVRRRGYGNPSNTSACDLPQGLDETSFREAVRKERSYELSFEGHRRQDLIRWGIYYKTVQATAKELGYWWEGTGSPNYSVATYTEEGKHELFPIPQRDMDLCIQFNQNPKW	not soluble
MFVQTTNQSNTLSNFILTCAFPAGAPVTNYPPSLSHTSSPGSSVYEASTKTEAVHKLESYQLQASRDPCTIPDELREEMKRMKRQEGAFKTALCLSHKRGKTCIYGEQCKFAHGVHELRCQQAKKNHRNYKTVLCDKFTTTGYCKYGIRCQFIHRSMDATNVTRPIDTADFKLDVQSDLSRAFALDSSSFLPNWHCSALLN	not soluble
MGYLVSKHLALSLGSSKRGYILSPIMPPVVIVEDDGPGYPFDIYYSEGKRVLTIVHRANPEREVQDEYLHTLSLWLREMGVGRVILVGGLNMEFMPREEKHGYRWLANRHYKGPKLEAPTMEAGLGVVGPLALLYMYLDYLGVPAAMVLPYSVAERVDYEAAIRGLKVIGGSIIGVEIPTDEIEKMASMQREILETISRMIEGEEEKESGGIYM	not soluble
MPKDWDAFYRNAPEDRPPAFVVRAYGPFVPQGPVLDLAGGLGRNARYFLQRGHPVVLVERSREALRRLSGTPGLTLVALDLEGADAPQSLPQGPFAGIVMAYYVNRPLLQGLAPLLLPGGLVLVEGFSRKEALRRGRPHSPFYWEGEELLTPPPGLALRAFGEGWMEGYRVYAVYLRP	soluble
MARNPRTTVRRILNSAPRSLLIQSVTIVALDPTDNNHGSHQPGSNGPSNSSTQADNFETETTADEERQKEDGVEDELEDEETTGFIDEDGEIRYPVDEVGNYEIDQEAETDESFYLDTQRDSSLCDERSQLCRSLSDQNLRTTFFLITTTNSKAAILRYLHFHNVSQDSILRKLLLNDSHLTLVEVCNLCAQNIELCKCEDMQEKCQLIFGDLKKWLEVILNSFANIMMKTKTTILEGYNSSSPINKGIFKKKLLSEMADNEMWMHFESSFDGIKVHKNGNQNIWPYSLLNLDLEDVHRASPQALILAALFIGFKNPTTKIHDRLTQWILLQMDEHVFFSEGVAWKADLTCANHDDPARRIVYNQCGLRSSGSCNFCLNQETECKINDEYTTLRENLTGSCPSTMNDGLRQRNQHSHFHKHVLYMHLCPVTSNARMLPKRVHFSALFSKGKWNLFPSKSVDFSSTPSLPSRFRSLSGKASQCTGSEKALSIVVAAAFSGELGGVSSAIILSIHGLYRLCIEPQSITDETLHLKIEQISKSIEVLIVKRAPEMLNGIKVHQVLYHLARMTELYGSLFPLSTQWFEYFYHTIQRTLVPEIYNGLGMSIMRKMSALQEIKTEAAFRLHTNHQFRTEANLKMCYELGLLRRLKRISVVPTPPQYQQFCETGDVFLNVVYHDGIRYSNYCNKKTDDSNVTFIEYARVRFAKIIGMLLKENNTDLRFILKKYCNTNDHLIDISNKLYEEDVPQMHIQNWVDSVSKSSFGGRVTLTNTVVVVSADSIVGHAVVVKRNNNCVALPFSRRISLS	not soluble
MDVLIIGGGEAGLVAGCRALTMGQKVILVEKNGYLGGATILNGSNVVGTGSDVAAQIFDNNHDTPEMLAQDVARESLETNYPALTDLMVHNIGPAIDFISKFADLHYQKAQTQTPEHSINRQIELPSASSYEFIQKVSKAFAAAGGQIMLDTRVEKLMLDNDKKLRGVIAAQKDQTVNIKARSVVLAAGGHGANQKMRGTESEGIDYYGPMTSTGDAYQFNGDLDLQTHDLGWYKLYPHGVEVEPGVAKLTTYASKQATDMGAIYVNSKGDRIVNESNVYTTFRNAILKQADKVAYLVMDERTWKKVYDLLILHDFTPEEIKSFFENKGKRPVFVKGSLESAAEQAGIVVDELVQTVKNYQGYVQDGHDHDFGRDPKYLHQFEGETFYIIEQRDRFATTLGGYSVDADNLQLVTTKNAPVANYFGAGEIIGGANGHDSMPSMMNTWGISSGYVAGAAASENAQRQATAGAAALEHHHHHH	not soluble
RWITATDWASLPQTADTPALILFHGLEGGSASRYAQSIAHYFRARGWIVVIAHFRGCSGVPNRLARAYYSGDSAEVGFMLDTVRARIPHARWHAVGVSLGGNALLKYLGEHHDEASWLAAAAGVSVPLDLVAGGKALCTGFIARRIYTAYFLKTMRRKVLEKAKRFPGAIDVIRIAHARDLRDFDDAYTARMHGYRNALDYWTRASSKPWLAHIKTPTLVLNARNDPFLPESALPIPAECSDSVLLHQPAEGGHAGFPTGPFPAHLNWLPQRLG	not soluble
MEYFNVGKIVNTQGLQGEMRVLSVSDFAEERFKKGSQLALFDDKDRFVQEVTIVSHRKQKHFDIIKFKDMYHINAIEKYKGYTLKVSKDNQGDLQEGEFYYHQIIGMAVYEKDVLIGHVKEILQPGANDVWIVKRQGKRDLLLPYIPPVVLNVDVPNKRVDVELMEGLDDEDLEHHHHHH	soluble
MAHHHHHHMLKCVSRVFLGAKTVPLNPHVPFKLHTAGRDDLPPIPTTATYEPEKIKENLAMMIRIRRVEALADQSYKLKKIRGFCHLCIGQEAIPVGMENVLSRGDPVVTGYRDHGLFMTRGGTIEELFAELFGREGGCSKGKGGSMHMYRVKENFYGGNGIVGAQAPLGAGLAWRYALENRDKPSNVAVTFYGDGAANQGQVFEAMNIAALQRIPVIFCCENNHYGMGTREDRAAYQPQMYRRGDYIPGLRVDGMDVLAVQEGTRWAKEWCLAGKGPVVLEMDSYRYMGHSMSDPDSQYRTKNDIQEVRRTRDCIEKMKEFVVSEGIMTVEEIKQMEKDVKKEVDKELPPAEKQAITPLKELFTDIYCGEQYEHRTTQGTVYAKP	not soluble
MQTQQERISTGVKGLDELIEGGLIPGRVYLITGPPGSGKTTFGMQFLLEGARRGEKVAYISLIHKPEEVVRDMVRFDPSVYVYVNNWRLILYDLGPILWRESTKVPTWRSVLSRIREITENEKITRLVIDPLTAIDFPLQDPVEKRVELAKFVRSLENLGVTTYLIAEMVELDKYSEEHYLVSGIIMLHYFMHEGRMIRAIQIFKMRGTKHDPNLKLLKFTDQGLVVYNKSPFEVV	soluble
MGSDKIHHHHHHMMTDARTTAEGGMETSYGFHKVDEGKKQGLVNEVFHKVAKRYDIMNDVMSAGLHRLWKDAMVSALSPRKDPSYKILDVAGGTGDVAFRIIEASNRLAHATVLDINGSMLAVGEERAAKKKLSDNLTFVEANAEELPFEANTFDAYTVAFGIRNVPRIDVALKEAYRVLKRGGRLLVLEFSEVDMPLLDRVYDAWSFNAIPQFGKMITGDAEPYQYLVESIRKFPNQEDFATMIRTAGFSRVTYTNYTGGIAALHSGWKL	not soluble
MGVDRQILVEGDNVTKPKNGQTVTCHYVLTLENGKKIDSSRDRGTPFKFKIGKGEVIKGWDQGVAQMSVGEKSKLTISADLGYGPRGVPPQIPANATLVFEVELLGVN	soluble
MKAAVVEQFKEPLKIKEVEKPTISYGEVLVRIKACGVCHTDLHAAHGDWPVKPKLPLIPGHEGVGIVEEVGPGVTHLKVGDRVGIPWLYSACGHCDYCLSGQETLCEHQKNAGYSVDGGYAEYCRAAADYVVKIPDNLSFEEAAPIFCAGVTTYKALKVTGAKPGEWVAIYGIGGLGHVAVQYAKAMGLNVVAVDIGDEKLELAKELGADLVVNPLKEDAAKFMKEKVGGVHAAVVTAVSKPAFQSAYNSIRRGGACVLVGLPPEEMPIPIFDTVLNGIKIIGSIVGTRKDLQEALQFAAEGKVKTIIEVQPLEKINEVFDRMLKGQINGRVVLTLEDK	soluble
